In article doi:10.1101/2021.03.26.437179 (bioRxiv, 2021):

Columns and labels:
Assay in all cases: pull-down
HIS-PUB26 = target: T1, HIS-PUB26 (Arabidopsis thaliana, UniProt Q9FXA4 1-421)
T1 sequence (looked up): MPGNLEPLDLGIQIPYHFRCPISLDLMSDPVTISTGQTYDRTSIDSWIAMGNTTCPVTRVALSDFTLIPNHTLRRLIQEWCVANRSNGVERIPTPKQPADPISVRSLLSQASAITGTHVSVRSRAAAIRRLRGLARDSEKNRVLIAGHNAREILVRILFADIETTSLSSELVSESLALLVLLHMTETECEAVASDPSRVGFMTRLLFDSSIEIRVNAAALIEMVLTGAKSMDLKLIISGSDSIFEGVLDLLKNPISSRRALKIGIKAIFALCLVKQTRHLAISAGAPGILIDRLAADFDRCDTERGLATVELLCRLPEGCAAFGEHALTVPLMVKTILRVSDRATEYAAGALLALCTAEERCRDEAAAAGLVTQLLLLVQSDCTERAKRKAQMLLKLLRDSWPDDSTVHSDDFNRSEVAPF

GST-PUB25 = target: T2, GST-PUB25 (Arabidopsis thaliana, UniProt Q9LT79 1-421)
T2 sequence (looked up): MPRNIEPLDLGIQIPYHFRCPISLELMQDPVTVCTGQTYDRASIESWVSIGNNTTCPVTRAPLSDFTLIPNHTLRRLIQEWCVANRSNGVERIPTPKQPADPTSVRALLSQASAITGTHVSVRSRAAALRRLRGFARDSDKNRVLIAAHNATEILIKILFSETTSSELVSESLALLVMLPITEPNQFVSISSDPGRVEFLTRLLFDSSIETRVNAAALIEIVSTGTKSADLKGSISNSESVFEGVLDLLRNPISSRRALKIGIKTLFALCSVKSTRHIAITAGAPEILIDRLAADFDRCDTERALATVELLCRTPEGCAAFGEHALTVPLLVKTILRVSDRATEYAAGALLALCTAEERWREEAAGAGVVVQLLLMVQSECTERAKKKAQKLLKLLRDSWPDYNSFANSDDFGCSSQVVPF

GST-PUB26 = target: T3, GST-PUB26 (Arabidopsis thaliana, UniProt Q9FXA4 1-421)
T3 sequence (looked up): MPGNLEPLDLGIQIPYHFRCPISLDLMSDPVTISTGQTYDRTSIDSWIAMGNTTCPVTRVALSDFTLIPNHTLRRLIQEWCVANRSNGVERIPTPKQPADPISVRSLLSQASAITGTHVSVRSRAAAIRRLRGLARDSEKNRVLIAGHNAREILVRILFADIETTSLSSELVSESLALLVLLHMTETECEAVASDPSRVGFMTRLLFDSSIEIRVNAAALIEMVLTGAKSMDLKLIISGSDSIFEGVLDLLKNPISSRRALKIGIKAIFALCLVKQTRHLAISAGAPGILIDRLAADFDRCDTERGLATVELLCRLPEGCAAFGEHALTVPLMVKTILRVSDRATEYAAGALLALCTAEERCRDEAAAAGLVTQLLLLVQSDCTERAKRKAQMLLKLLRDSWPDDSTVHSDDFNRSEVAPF

Measured: binding result

B1: MBP-MYB6 (natural protein, Arabidopsis thaliana, UniProt Q38851 1-236, looked up)
chain: MGRSPCCEKAHTNKGAWTKEEDQRLVDYIRNHGEGCWRSLPKSAGLLRCGKSCRLRWINYLRPDLKRGNFTDDEDQIIIKLHSLLGNKWSLIAGRLPGRTDNEIKNYWNTHIKRKLLSHGIDPQTHRQINESKTVSSQVVVPIQNDAVEYSFSNLAVKPKTENSSDNGASTSGTTTDEDLRQNGECYYSDNSGHIKLNLDLTLGFGSWSGRIVGVGSSADSKPWCDPVMEARLSLL
binds: HIS-PUB26 | GST-PUB25 | GST-PUB26
